Test results as given in patent US11090383 (CENTRE FOR DRUG RESEARCH AND DEVELOPMENT, dated 2021).

T1: human podocalyxin as displayed on tumor cells (A172, SKOV3, MIA PaCa-2, MDA-MB-231, OVCAR10) (human, UniProt O00592 23-558, post-translational glycan recognised by Podo447 (O-linked, with beta-GalNAc that may be terminal; site not stated))
T1 construct: Endogenous podocalyxin of tumor cell lines, on cells, in lysates or in cryosections; also called tumor-associated Podocalyxin
T1 chain: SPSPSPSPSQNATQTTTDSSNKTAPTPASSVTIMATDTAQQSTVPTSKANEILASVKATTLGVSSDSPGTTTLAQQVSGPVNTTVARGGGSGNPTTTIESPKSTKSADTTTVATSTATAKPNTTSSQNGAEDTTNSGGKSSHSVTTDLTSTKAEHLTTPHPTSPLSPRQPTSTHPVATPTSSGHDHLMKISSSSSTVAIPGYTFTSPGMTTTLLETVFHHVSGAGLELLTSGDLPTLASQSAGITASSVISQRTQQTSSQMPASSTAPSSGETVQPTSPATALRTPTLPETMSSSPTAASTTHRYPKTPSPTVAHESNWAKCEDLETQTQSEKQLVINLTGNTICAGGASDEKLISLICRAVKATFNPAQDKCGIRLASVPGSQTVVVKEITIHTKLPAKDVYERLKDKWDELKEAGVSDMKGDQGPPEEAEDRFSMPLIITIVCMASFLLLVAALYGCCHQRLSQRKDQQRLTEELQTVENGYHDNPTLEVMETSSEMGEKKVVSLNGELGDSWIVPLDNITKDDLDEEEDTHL

B1: Humanized Podo447 (humanized_podo447VH_hIgG1C with humanized_podo447VL6_hIgkC) (antibody, V domains shown)
VH: EVQLVESGGGLVQPGRSLRLSCTASGFSLSGYQMNWVRQAPGKGLEWVGYIWSDGGTDYTASVKGRFTISRDGSKSIAYLQMNSLKTEDTAVYYCAREGYWLGAFDPWGQGTSVTVSA
VL: AAQLTQSPSPLSASVGDRVTITCQSSQSVHHKNDLAWYQQKPGKAPKLLIYYTSTLASGVPSRFSGSGSGTDFTLTISSLQPEDFATYYCAGVYEGSSDNRAFGGGTKVEIKR
notes: The labels R0943_A046 and CDRD-0103-001 are tied to this molecule only by the word 'Humanized'; also called R0943_A046 (Humanized); CDRD-0103-001 (Humanized)
B2: Podo447 antibody, recombinant rabbit/human IgG1 chimera (antibody, V domains shown)
VH: QSLEESGGRLVTPGTPLTLTCTASGFSLSGYQMNWVRQAPGKGLEWIGYIWSDGGTDYASWAKGRFTISKTSSTTVDLKMTSLTTEDTATYFCAREGYWLGAFDPWGPGTLVTVSS
VL: AAVLTQTPSPVSAAVGATVSVSCQSSQSVHHKNDLAWFQQKPGQPPKLLIYYTSTLASGVPSRFKGSGSGTQFTLTISDLECDDAATYYCAGVYEGSSDNRAFGGGTEVVVKR
notes: also called anti-Podo

Tests used:
[1] = molecular target: WT Podocalyxin (on normal cells and tissues) (human) (UniProt O00592); assay: flow cytometry, live 293 cells
[2] = molecular target: WT Podocalyxin (on normal cells and tissues) (human) (UniProt O00592); assay: flow cytometry, live HUVEC cells
[3] = molecular target: cPodo/CHO; assay: flow cytometry, live cPodo/CHO cells; Mock/CHO with this antibody: 2%
[4] = molecular target: T1, human podocalyxin as displayed on tumor …; assay: flow cytometry, titrated antibody on A172 cells, four-parameter fit
Protocol: (§1) Briefly, A172 cells were detached using cell dissociation solution (Sigma-C5914) and incubated with titrated purified antibodies in 96-well V-bottom plates. Antibody binding was detected using a goat anti-human IgG-Fc-Alexa 647 secondary antibody (Jackson 109-605-098) and the cells were analyzed on the Intellicyt high throughput flow cytometer (HTFC).
Table immediately above: Statistical data using Graphpad Prism analysis software representing the data presented above. Values were calculated using a variable slope (four parameters) non-linear regression analysis.

[5] = molecular target: T1, human podocalyxin as displayed on tumor …; assay: KinExA, titrated A172 cells with constant antibody, free antibody measured
Protocol: Example 13—Determination of Affinity of PODO447 and PODO83 for Cellular PODXL Antigens by Kinetic Exclusion Assay The concentration dependence of free anti-podo antibody as a function of A172 cell number was determined using a Sapidyne KinExA 3200. […] A172 cells and cell bound antibodies were then isolated by centrifugation. Supernatant containing free, unbound antibody was then transferred to a new tube. In the KinExA, a new column of PMMA beads coated with a Gt anti-IgG-Fc capture antibody is packed for each sample assayed. The supernatant containing free unbound antibody is passed over the column. The amount of free antibody captured on the PMMA beads was then measured using a Gt anti-IgG-Fc-A647. The concentration of free antibody over the entire 12 step dilution series was then used to determine the antibody Kd's using the standard Kd template in the KineExA Pro Software.
Table immediately above: Kinetic exclusion assay (KinExA) affinity determination of humanized and rabbit/human chimeric antibodies to Podocalyxin endogenously expressed on A172 cells. A172 cells were titrated and incubated with constant antibody concentrations and allowed to reach equilibrium with a 16 hour incubation. Free, unbound antibody in the supernatant was then captured on the KinExA 3200 using poly(methyl methacrylate) (PMMA) beads coated with goat anti-human IgG-Fc capture antibodies and detected with goat anti-human IgG-Fc-alexa 647 label.

[6] = molecular target: T1, human podocalyxin as displayed on tumor …; assay: flow cytometry titration on A172 cells, goat anti-human IgG-Fc-Alexa 647
Protocol: as §1

[7] = molecular target: WT Podocalyxin (on normal cells and tissues) (human) (UniProt O00592); assay: IHC, Normal Kidney
[8] = molecular target: T1, human podocalyxin as displayed on tumor …; assay: flow cytometry, MDA.MB.231 Podo KD
Protocol: (§2) Cells were cultured under continuous antibiotic selection with puromycin (4 µg/ml; Invitrogen, Burlington, ON) and G418 (lmg/ml; Calbiochem, Darmstadt, Germany). shRNA constructs were generously provided by Dr. John Wilkins (University of Manitoba, Winnipeg, MB) and the infections were performed by Michelle Turvey and Dr. Shaun McColl (University of Adelaide, Australia). 2.5×10^5 MIA PaCa-2 cells were seeded per well in a 6-well TC-Treated plate (Costar, cat#3516). After incubation overnight, cells were transfected with 10 nM siRNA following the guidelines of the Oligofectamine protocol (cat#12252-011, Invitrogen, Burlington, ON). Pre-Design and validated siRNA (PODXL siRNA, cat# s10770; Negative control No. 1 siRNA, cat#4390843) were obtained from Ambion (Thermo Fisher Scientific, Burlington, ON). Knock-downs were assessed by flow cytometry two days after transfection.
(§3) Sub-confluent cell lines were washed once with Ca^2+ and Mg^2+ free HBSS (Invitrogen, Carlsbad, Calif.) harvested with 0.25% Trypsin/EDTA (Invitrogen, Carlsbad, Calif.). Cells were quenched with normal growth media and centrifuged at 300×g for 5 minutes. Cells were washed once with FACS buffer (2% FBS, 2 mM EDTA, PBS, 0.05% NaAzide). Cells were blocked for 20 minutes at 4° C. in Blocking Buffer (2% rat serum, 2 µg/ml dilution of 2.4G2 (anti-CD16/CD32)) in a 96 well 'v' bottom plate. […]

[9] = molecular target: T1, human podocalyxin as displayed on tumor …; assay: flow cytometry, MIA PaCa-2 PODXL siRNA
Protocol: as §2, §3

[10] = molecular target: WT Podocalyxin (on normal cells and tissues) (human) (UniProt O00592); assay: IHC, Normal Cerebellum; Weak and Strong columns hold '-'
[11] = molecular target: T1, human podocalyxin as displayed on tumor …; assay: KinExA kinetic exclusion assay, antigen: MDA-MB-231 Cells

Row | Molecule | Live cell GeoMean FL [1] | Live cell GeoMean FL [2] | % Shifting (FL4) Live Cells [3] [%] | LogIC50 [4] | Kd [5] [nM] | Kd High [5] [pM] | Kd Low [5] [pM] | EC50 (read off the curve) [6] [ng/mL] | IHC score Negative, cases of total [7] [%] | IHC score Weak, cases of total [7] [%] | decrease of binding on podocalyxin knockdown (fold) [8] [X] | decrease of binding on podocalyxin knockdown (fold) [9] [X] | IHC score Negative, cases of total [10] | Kd [11] [nM] | Kd High [11] [nM] | Kd Low [11] [pM]
1 | MsIgG2a (antibody) | 556 | 484 | 1 | – | – | – | – | – | – | – | – | – | – | – | – | –
2 | Control Rb/HuIgG1 (antibody) | 446 | 489 | – | – | – | – | – | – | – | – | – | – | – | – | – | –
3 | B1 | – | – | – | 2.09 | 0.0144 | 45.9 | 4.59 | ~100 | – | – | – | – | – | – | – | –
4 | B2 | 6710 | 3970 | – | 2.28 | 0.00757 | 24.9 | 2.3 | ~200 | 98 | 1.9 | 2.5 | 10 | 0 of 10 cases | 0.189 | 52.4 | 42.5
